# Molecular target: T1, interaction between TIM-3 and Galectin-9 (Homo sapiens, UniProt Q8TDQ0)
# T1 construct: purchased R&D Systems
# Test: MesoScale competition assay, Gal9-SULFOTag binding to coated TIM-3 fusion protein
# Settings: serial dilutions, Galectin-9 SULFOTag 100 nM, FIG. 1
# Experimental: TIM-3 fusion protein (R&D Systems) was coated on a standard MesoScale 96 well plate (Meso Scale Discovery) at 2 μg/ml in PBS (Phosphate Buffered Saline) and incubated for six hours at room temperature. The plate was washed three times with PBST (PBS buffer containing 0.05% Tween-20) and blocked with PBS containing 5% Probumin (Millipore) overnight at 4° C. […] The plate was then washed three times with PBST, and Galectin-9 labeled with MSD SULFOTag (Meso Scale Discovery) as per manufacturer's instructions, diluted in Assay Diluent to 100 nM, was added to the plate for one hour at room temperature on an orbital shaker. The plate was again washed three times with PBST, and Read Buffer T (1×) was added to the plate. The plate was read on MA600 Imager, and competition was assessed as a measure of the ability of the antibody to block Gal9-SULFOTag signal to TIM-3 receptor.
molecule,measurement,value
"Galectin-9 protein: control recombinant human Galectin-9 protein, unlabeled (protein) AFSGSQAPYLSPAVPFSGTIQGGLQDGLQITVNGTVLSSSGTRFAVNFQTGFSGNDIAFHFNPRFEDGGYVVCNTRQNGSWGPEERKTHMPFQKGMPFDLCFLVQSSDFKVMVNGILFVQYFHRVPFHRVDTISVNGSVQLSYISFQPPGVWPANPAPITQTVIHTVQSAPGQMFSTPAIPPMMYPHPAYPMPFITTILGGLYPSKSILLSGTVLPSAQRFHINLCSGNHIAFHLNPRFDENAVVRNTQIDNSWGSEERSLPRKMPFVRGQSFSVWILCEAHCLKVAVDGQHLFEYYHRLRNLPTINRLEVGGDIQLTHVQT",ability to block Gal9-SULFOTag signal to TIM-3 receptor (competition),did not
